Measured values published in patent publication US20220073584A1 (AstraZeneca / MedImmune, published 2022).
Positions count from the first letter of the chain named. Ends that are not written are not given here.

T1: human RXFP1 receptor (human, UniProt Q9HBX9 1-757)
T1 sequence (looked up): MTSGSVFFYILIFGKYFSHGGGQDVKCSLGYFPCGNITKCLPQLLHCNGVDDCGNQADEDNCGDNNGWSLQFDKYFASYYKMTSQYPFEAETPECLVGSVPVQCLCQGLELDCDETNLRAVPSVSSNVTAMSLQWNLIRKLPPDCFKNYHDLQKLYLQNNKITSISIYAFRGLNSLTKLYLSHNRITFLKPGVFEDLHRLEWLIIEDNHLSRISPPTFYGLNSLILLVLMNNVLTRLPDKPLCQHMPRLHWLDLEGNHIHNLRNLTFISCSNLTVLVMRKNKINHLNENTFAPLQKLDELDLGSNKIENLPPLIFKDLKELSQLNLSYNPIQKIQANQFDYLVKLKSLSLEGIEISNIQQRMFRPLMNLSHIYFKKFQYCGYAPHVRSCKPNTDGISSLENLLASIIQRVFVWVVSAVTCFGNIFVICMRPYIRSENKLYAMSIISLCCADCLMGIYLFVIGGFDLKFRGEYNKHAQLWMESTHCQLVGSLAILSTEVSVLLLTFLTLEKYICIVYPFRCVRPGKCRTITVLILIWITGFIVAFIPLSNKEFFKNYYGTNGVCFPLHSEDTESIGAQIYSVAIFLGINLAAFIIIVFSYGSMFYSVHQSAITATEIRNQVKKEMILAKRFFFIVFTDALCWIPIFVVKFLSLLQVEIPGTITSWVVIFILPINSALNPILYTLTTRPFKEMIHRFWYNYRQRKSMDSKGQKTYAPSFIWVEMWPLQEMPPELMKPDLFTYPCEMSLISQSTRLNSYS

T2: mouse RXFP1 receptor (mouse, UniProt Q6R6I7 1-758)
T2 sequence (looked up): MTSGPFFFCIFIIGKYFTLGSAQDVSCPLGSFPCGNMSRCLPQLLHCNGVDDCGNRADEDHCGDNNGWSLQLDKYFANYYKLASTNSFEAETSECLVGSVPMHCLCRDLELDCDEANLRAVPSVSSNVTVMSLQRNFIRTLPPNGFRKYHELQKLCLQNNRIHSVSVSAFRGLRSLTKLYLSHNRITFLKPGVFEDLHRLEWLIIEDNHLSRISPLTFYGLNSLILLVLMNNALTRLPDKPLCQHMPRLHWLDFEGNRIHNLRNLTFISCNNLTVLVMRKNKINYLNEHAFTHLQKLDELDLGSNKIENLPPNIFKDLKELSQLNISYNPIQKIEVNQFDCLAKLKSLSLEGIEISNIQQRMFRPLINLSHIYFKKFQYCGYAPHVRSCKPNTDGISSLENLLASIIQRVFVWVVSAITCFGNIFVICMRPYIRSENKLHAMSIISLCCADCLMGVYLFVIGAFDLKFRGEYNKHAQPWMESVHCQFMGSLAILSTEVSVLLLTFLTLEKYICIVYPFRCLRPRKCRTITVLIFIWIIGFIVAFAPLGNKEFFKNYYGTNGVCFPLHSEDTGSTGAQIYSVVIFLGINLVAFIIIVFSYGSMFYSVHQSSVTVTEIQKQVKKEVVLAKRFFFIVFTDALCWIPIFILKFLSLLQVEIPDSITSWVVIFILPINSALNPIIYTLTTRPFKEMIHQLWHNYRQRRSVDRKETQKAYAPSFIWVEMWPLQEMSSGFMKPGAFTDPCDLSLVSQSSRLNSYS

B1: recombinant human Relaxin-2 (R&D Systems, catalogue number 6586-RN-025) (ligand)
chain 1: QLYSALANKCCHVGCTKRSLARFC
chain 2: DSWMEEVIKLCGRELVRAQIAICGMSTWS
modifications: not fully specified (bridges); ends and bridges not checked; also: two interchain and one intrachain disulfide bonds, positions not given here
B2: Fc-YTE-TM_hRLX2_15-15AA (Fc fusion)
chain: DKTHTCPPCPAPEFEGGPSVFLFPPKPKDTLYITREPEVTCVVVDVSHEDPEVKFNWYVDGVEVHNAKTKPREEQYNSTYRVVSVLTVLHQDWLNGKEYKCKVSNKALPASIEKTISKAKGQPREPQVYTLPPSRDELTKNQVSLTCLVKGFYPSDIAVEWESNGQPENNYKTTPPVLDSDGSFFLYSKLTVDKSRWQQGNVFSCSVMHEALHNHYTQKSLSLSPGKGGGGSGGGGSGGGGSQLYSALANKCCHVGCTKRSLARFCGGGGSGGGGSGGGGSSWMEEVIKLCGRELVRAQIAICGMSTWS
B3: Fc-YTE-FQQ_hRLX2_15-15AA (Fc fusion)
chain: B2 chain with E15Q, K102Q, S111P
B4: Fc-TMΔTHTΔK_hRLX2_21-15AA (Fc fusion)
chain: GGGSACPPCPAPEFEGGPSVFLFPPKPKDTLMISRTPEVTCVVVDVSHEDPEVKFNWYVDGVEVHNAKTKPREEQYNSTYRVVSVLTVLHQDWLNGKEYKCKVSNKALPASIEKTISKAKGQPREPQVYTLPPSREEMTKNQVSLTCLVKGFYPSDIAVEWESNGQPENNYKTTPPVLDSDGSFFLYSKLTVDKSRWQQGNVFSCSVMHEALHNHYTQKSLSLSPGGGGGSGGGGSGGGGSGGGGGSQLYSALANKCCHVGCTKRSLARFCGGGGSGGGGSGGGGSSWMEEVIKLCGRELVRAQIAICGMSTWS
B5: hRLX2-Fc-TMΔTHTΔK_15-24AA (Fc fusion)
chain: QLYSALANKCCHVGCTKRSLARFCGGGGSGGGGSGGGGSSWMEEVIKLCGRELVRAQIAICGMSTWSAAAGGGGSGGGGSGGGGSGGGGSACPPCPAPEFEGGPSVFLFPPKPKDTLMISRTPEVTCVVVDVSHEDPEVKFNWYVDGVEVHNAKTKPREEQYNSTYRVVSVLTVLHQDWLNGKEYKCKVSNKALPASIEKTISKAKGQPREPQVYTLPPSREEMTKNQVSLTCLVKGFYPSDIAVEWESNGQPENNYKTTPPVLDSDGSFFLYSKLTVDKSRWQQGNVFSCSVMHEALHNHYTQKSLSLSPG
B6: Fc-TMΔTHTΔK_hRLX2(BA)_21-15AA (Fc fusion)
chain: GGGSACPPCPAPEFEGGPSVFLFPPKPKDTLMISRTPEVTCVVVDVSHEDPEVKFNWYVDGVEVHNAKTKPREEQYNSTYRVVSVLTVLHQDWLNGKEYKCKVSNKALPASIEKTISKAKGQPREPQVYTLPPSREEMTKNQVSLTCLVKGFYPSDIAVEWESNGQPENNYKTTPPVLDSDGSFFLYSKLTVDKSRWQQGNVFSCSVMHEALHNHYTQKSLSLSPGGGGGSGGGGSGGGGSGGGGGSSWMEEVIKLCGRELVRAQIAICGMSTWSGGGGSGGGGSGGGGSQLYSALANKCCHVGCTKRSLARFC
B7: hRLX2(BA)-Fc-TMΔTHTΔK_15-24AA (Fc fusion)
chain: SWMEEVIKLCGRELVRAQIAICGMSTWSGGGGSGGGGSGGGGSQLYSALANKCCHVGCTKRSLARFCAAAGGGGSGGGGSGGGGSGGGGSACPPCPAPEFEGGPSVFLFPPKPKDTLMISRTPEVTCVVVDVSHEDPEVKFNWYVDGVEVHNAKTKPREEQYNSTYRVVSVLTVLHQDWLNGKEYKCKVSNKALPASIEKTISKAKGQPREPQVYTLPPSREEMTKNQVSLTCLVKGFYPSDIAVEWESNGQPENNYKTTPPVLDSDGSFFLYSKLTVDKSRWQQGNVFSCSVMHEALHNHYTQKSLCLSPG

Biological target: T1, human RXFP1 receptor
Test: cell-based or functional assay

**Q.** How did the “EC50 (M), stimulation of cAMP production (HitHunter cAMP assay) in CHO-K1 RXFP1 Gs cells” value (“EC50 (M), stimulation of cAMP production” below) turn out when B1 was run?
**A.** The value was 1.06e-10 M.

**Q.** Which “EC50 (M), stimulation of cAMP production” value does the source give for B2 here?
**A.** The value was 5.39e-09 M.

**Q.** How did the “EC50 (M), stimulation of cAMP production” value turn out when B3 was run?
**A.** The value was 4.56e-09 M.

Biological target: T1, human RXFP1 receptor
Test: cell-based or functional assay
Remark: another data set of the same source

**Q.** For B4, which “hRXFP1 EC50 (M), cAMP HTRF assay in CHO-K1 RXFP1 Gs cells” value (“hRXFP1 EC50 (M), cAMP HTRF assay” below) is on record?
**A.** The value was 2.6e-09 M.

**Q.** How did the “hRXFP1 EC50 (M), cAMP HTRF assay” value turn out when B5 was run?
**A.** The value was 4.97e-09 M.

**Q.** With B6 as the binder, how does the “hRXFP1 EC50 (M), cAMP HTRF assay” value read?
**A.** Its value is 1.56e-08 M.

**Q.** Which “hRXFP1 EC50 (M), cAMP HTRF assay” value does the source give for B1 here?
**A.** The value was 1.38e-10 M.

**Q.** For B7, which “hRXFP1 EC50 (M), cAMP HTRF assay” value is on record?
**A.** The value was 1.13e-09 M.

Biological target: human RXFP2 (human, UniProt Q8WXD0 1-754)
Test: cell-based or functional assay

human RXFP2, sequence (Q8WXD0 whole entry): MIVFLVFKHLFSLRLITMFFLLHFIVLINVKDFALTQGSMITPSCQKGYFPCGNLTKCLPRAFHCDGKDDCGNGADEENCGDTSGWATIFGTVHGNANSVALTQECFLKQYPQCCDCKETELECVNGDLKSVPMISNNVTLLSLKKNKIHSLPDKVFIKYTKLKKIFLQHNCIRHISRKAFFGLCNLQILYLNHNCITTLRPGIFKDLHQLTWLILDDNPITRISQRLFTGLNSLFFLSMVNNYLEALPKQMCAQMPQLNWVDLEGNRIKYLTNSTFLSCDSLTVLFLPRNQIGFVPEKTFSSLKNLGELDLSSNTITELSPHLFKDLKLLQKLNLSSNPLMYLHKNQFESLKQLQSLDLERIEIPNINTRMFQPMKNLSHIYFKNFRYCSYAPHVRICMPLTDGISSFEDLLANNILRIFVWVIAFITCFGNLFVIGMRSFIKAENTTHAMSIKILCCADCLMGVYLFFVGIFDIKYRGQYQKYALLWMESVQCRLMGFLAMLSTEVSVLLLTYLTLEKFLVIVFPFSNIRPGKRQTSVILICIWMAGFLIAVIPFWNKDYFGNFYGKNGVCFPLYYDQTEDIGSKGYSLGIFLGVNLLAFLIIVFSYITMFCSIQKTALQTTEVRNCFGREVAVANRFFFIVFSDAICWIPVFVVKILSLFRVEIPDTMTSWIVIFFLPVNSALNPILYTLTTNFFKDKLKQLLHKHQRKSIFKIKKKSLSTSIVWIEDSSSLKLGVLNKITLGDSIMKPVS

**Q.** With B4 as the binder, how does the “hRXFP2 EC50 (M), cAMP HTRF assay in CHO-K1 RXFP2 Gs cells” value (from here on “hRXFP2 EC50 (M), cAMP HTRF assay”) read?
**A.** Its value is > 6.78e-06 M.

**Q.** How did the “hRXFP2 EC50 (M), cAMP HTRF assay” value turn out when B5 was run?
**A.** The value was > 3.09e-07 M.

**Q.** B6 was tested. Which “hRXFP2 EC50 (M), cAMP HTRF assay” value did it give?
**A.** The value was > 8.22e-06 M.

**Q.** With B1 as the binder, how does the “hRXFP2 EC50 (M), cAMP HTRF assay” value read?
**A.** The value was 1.46e-07 M.

**Q.** How did the “hRXFP2 EC50 (M), cAMP HTRF assay” value turn out when B7 was run?
**A.** The value was > 4.33e-06 M.

Biological target: T2, mouse RXFP1 receptor
Test: cell-based or functional assay

**Q.** For B4, which “mRXFP1 EC50 (M), cAMP HTRF assay in CHO-K1 mRXFP1 Gs cells” value (shortened to “mRXFP1 EC50 (M), cAMP HTRF assay”) is on record?
**A.** The value was 2.52e-09 M.

**Q.** B5 was tested. Which “mRXFP1 EC50 (M), cAMP HTRF assay” value did it give?
**A.** The value was 2.23e-09 M.

**Q.** With B6 as the binder, how does the “mRXFP1 EC50 (M), cAMP HTRF assay” value read?
**A.** The value was 8.82e-09 M.

**Q.** With B1 as the binder, how does the “mRXFP1 EC50 (M), cAMP HTRF assay” value read?
**A.** Its value is 6.68e-11 M.

**Q.** Which “mRXFP1 EC50 (M), cAMP HTRF assay” value does the source give for B7 here?
**A.** The value was 8.78e-10 M.
